Data from patent US20170015742A1 (published 2017).
Where a chain is given by its changes, count along the chain named. Numbers in names are those of the source. One block for each binder: values may come before it.

Tests used:
VEGF-A = VEGF-A (UniProt P15692-4 27-191, limits assumed); assay: SPR (Biacore), DVD-Ig captured by anti-human Fc, antigen injected
Description: (§1) For example, approximately 9000 RU of goat anti-human Fc specific polyclonal antibody (Thermo Fisher Scientific Inc., Rockford, Ill.) diluted in 10 mM sodium acetate (pH 4.5) is directly immobilized across a CM5 research grade biosensor chip using a standard amine coupling kit according to manufacturer's instructions and procedures at 25 μg/ml. Unreacted moieties on the biosensor surface were blocked with ethanolamine. For kinetic analysis, rate equations derived from the 1:1 Langmuir binding model were fitted simultaneously to multiple antigen injections (using global fit analysis) with the use of Scrubber 2 (BioLogic Software), Biacore Biaevaluation 4.0.1 software or Biacore T100 Evaluation software. Purified antibodies or DVD-Ig molecules were diluted in running buffer for capture across goat anti-human Fc reaction surfaces. Antibodies or DVD-Ig molecules to be captured as a ligand (1 μg/ml) were injected over reaction matrices at a flow rate of 10 μl/minute. During the assay, all measurements were referenced against the capture surface alone (i.e., with no captured antibody or DVD-Ig molecule). […] The equilibrium dissociation constant KD (M) of the reaction between antibodies and the target antigen was then calculated from the kinetic rate constants by the following formula: KD=Koff/Kₒₙ. Binding was recorded as a function of time and kinetic rate constants were calculated.

PDGF-BB = PDGF-BB (UniProt P01127 82-190); assay: as above
Description: as §1

PDGF-BB, sequence (P01127 82-190): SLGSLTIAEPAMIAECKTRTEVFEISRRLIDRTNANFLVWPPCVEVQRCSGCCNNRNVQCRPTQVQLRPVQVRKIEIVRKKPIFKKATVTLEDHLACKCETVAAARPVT
VEGF-A, sequence (P15692 other isoform, or with tags, fused parts or gaps limits assumed): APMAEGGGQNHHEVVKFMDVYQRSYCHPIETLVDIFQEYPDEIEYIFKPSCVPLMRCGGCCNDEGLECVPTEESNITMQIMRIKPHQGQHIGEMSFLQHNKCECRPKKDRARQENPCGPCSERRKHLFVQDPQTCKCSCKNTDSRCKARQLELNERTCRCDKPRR

B3: 9E10.1_GS_3E2.1 (PR-1610562) (bispecific antibody, human IgG1, kappa, L234A L235A)
heavy: EIQLVQSGSELKKPGASVKVSCKASGYTFTNYGMYWVKQAPGQGLEYMGWIDTETGRPTYADDFKGRFVFSLDTSVSTAYLQISSLKAEDTAVYFCARWSGDTTGIRGPWFAYWGQGTLVTVSSGGGGSGGGGSEVQLVQSGAEVKKPGSSVKVSCKASGYTFTESYMYWVKQAPGQGLELIGRIDPEDGSTDYVEKFKNKATLTADKSTSTAYMELSSLRSEDTAVYFCARFGARSYFYPMDAWGQGTTVTVSSASTKGPSVFPLAPSSKSTSGGTAALGCLVKDYFPEPVTVSWNSGALTSGVHTFPAVLQSSGLYSLSSVVTVPSSSLGTQTYICNVNHKPSNTKVDKKVEPKSCDKTHTCPPCPAPEAAGGPSVFLFPPKPKDTLMISRTPEVTCVVVDVSHEDPEVKFNWYVDGVEVHNAKTKPREEQYNSTYRVVSVLTVLHQDWLNGKEYKCKVSNKALPAPIEKTISKAKGQPREPQVYTLPPSREEMTKNQVSLTCLVKGFYPSDIAVEWESNGQPENNYKTTPPVLDSDGSFFLYSKLTVDKSRWQQGNVFSCSVMHEALHNAYTQKSLSLSPGK
light: DIRMTQSPSSLSASVGDRVTIECLASEDIYSDLAWYQQKPGKSPKLLIYNANGLQNGVPSRFSGSGSGTDYSLTISSLQPEDVATYFCQQYNYFPGTFGQGTKLEIKGGSGGGGSGGETVLTQSPATLSLSPGERATLSCRASESVSTLMHWYQQKPGQQPRLLIYGASNLESGVPARFSGSGSGTDFTLTISSLEPEDFAVYFCQQSWNDPWTFGGGTKVEIKRTVAAPSVFIFPPSDEQLKSGTASVVCLLNNFYPREAKVQWKVDNALQSGNSQESVTEQDSKDSTYSLSSTLTLSKADYEKHKVYACEVTHQGLSSPVTKSFNRGEC
notes: DVD-Ig: outer hBEW-9E10.1 (VEGF), inner hBFU-3E2.1 (PDGF), linkers GS-H10 / GS-L10(dR); Human IgG1 L234A, L235A, H435A with kappa light chain
Kd (VEGF-A): 2.4 pM
kon (VEGF-A): 9.3e+06 M⁻¹ s⁻¹
Kd (PDGF-BB): 21 pM
kon (PDGF-BB): 4.1e+07 M⁻¹ s⁻¹

B4: 9E10.6_GS_3E2.1 (PR-1610563) (bispecific antibody, human IgG1, kappa, L234A L235A)
heavy: EVQLVQSGAEVKKPGSSVKVSCKASGYTFTNYGMYWVRQAPGQGLEWMGWIDTETGRPTYADDFKGRFTFTADKSTSTAYMELSSLRSEDTAVYYCARWSGDTTGIRGPWFAYWGQGTLVTVSSGGGGSGGGGSEVQLVQSGAEVKKPGSSVKVSCKASGYTFTESYMYWVKQAPGQGLELIGRIDPEDGSTDYVEKFKNKATLTADKSTSTAYMELSSLRSEDTAVYFCARFGARSYFYPMDAWGQGTTVTVSSASTKGPSVFPLAPSSKSTSGGTAALGCLVKDYFPEPVTVSWNSGALTSGVHTFPAVLQSSGLYSLSSVVTVPSSSLGTQTYICNVNHKPSNTKVDKKVEPKSCDKTHTCPPCPAPEAAGGPSVFLFPPKPKDTLMISRTPEVTCVVVDVSHEDPEVKFNWYVDGVEVHNAKTKPREEQYNSTYRVVSVLTVLHQDWLNGKEYKCKVSNKALPAPIEKTISKAKGQPREPQVYTLPPSREEMTKNQVSLTCLVKGFYPSDIAVEWESNGQPENNYKTTPPVLDSDGSFFLYSKLTVDKSRWQQGNVFSCSVMHEALHNAYTQKSLSLSPGK
light: B3 light with E22T, S72T
notes: DVD-Ig: outer hBEW-9E10.6 (VEGF), inner hBFU-3E2.1 (PDGF), linkers GS-H10 / GS-L10(dR); Human IgG1 L234A, L235A, H435A with kappa light chain
Kd (VEGF-A): 3 pM
kon (VEGF-A): 8.6e+06 M⁻¹ s⁻¹
Kd (PDGF-BB): 36 pM
kon (PDGF-BB): 5.8e+06 M⁻¹ s⁻¹

B5: 1B10.1_GS_CL-33675 (PR-1611292) (bispecific antibody, human IgG1, kappa, L234A L235A)
heavy: EVQLVESGGGLVQPGGSLRLSCAASGFSFSKYDMAWFRQAPGKGLEWVASITTSGVGTYYRDSVKGRFTVSRDNAKSTLYLQMNSLRAEDTAVYYCARGYGAMDAWGQGTTVTVSSGGGGSGGGGSEVTLRESGPALVKPTQTLTLTCTFSGFSLSTYGMGVGWIRQPPGKALEWLANIWWDDDKYYNPSLKNRLTISKDTSKNQVVLTMTNMDPVDTATYYCARIESSGPKYSFDYWGQGTMVTVSSASTKGPSVFPLAPSSKSTSGGTAALGCLVKDYFPEPVTVSWNSGALTSGVHTFPAVLQSSGLYSLSSVVTVPSSSLGTQTYICNVNHKPSNTKVDKKVEPKSCDKTHTCPPCPAPEAAGGPSVFLFPPKPKDTLMISRTPEVTCVVVDVSHEDPEVKFNWYVDGVEVHNAKTKPREEQYNSTYRVVSVLTVLHQDWLNGKEYKCKVSNKALPAPIEKTISKAKGQPREPQVYTLPPSREEMTKNQVSLTCLVKGFYPSDIAVEWESNGQPENNYKTTPPVLDSDGSFFLYSKLTVDKSRWQQGNVFSCSVMHEALHNAYTQKSLSLSPGK
light: DIQMTQSPSSLSASVGDRVTITCKASQDIDDYLSWYQQKPGKSPKLVIYAATRLADGVPSRFSGSGSGTDYTLTISSLQPEDFATYYCLQSSSTPWTFGGGTKVEIKGGSGGGGSGGEIVLTQSPGTLSLSPGERATLSCRASSGSIWYSFVSWYQQKPGQAPRLLIYADDQRASGIPDRFSGSGSGTDFTLTISRLEPEDFAVYYCQSYGINIDVVFGGGTKVEIKRTVAAPSVFIFPPSDEQLKSGTASVVCLLNNFYPREAKVQWKVDNALQSGNSQESVTEQDSKDSTYSLSSTLTLSKADYEKHKVYACEVTHQGLSSPVTKSFNRGEC
notes: DVD-Ig: outer hBEW-1B10.1 (VEGF), inner CL-33675 (PDGF), linkers GS-H10 / GS-L10(dR); Human IgG1 L234A, L235A, H435A with kappa light chain
Kd (VEGF-A): 62 pM
kon (VEGF-A): 2.1e+06 M⁻¹ s⁻¹
Kd (PDGF-BB): 0.54 pM
kon (PDGF-BB): 2.2e+07 M⁻¹ s⁻¹

Binders with a lower Kd (VEGF-A), results first:

Kd (VEGF-A): 2.2 pM
kon (VEGF-A): 1.1e+07 M⁻¹ s⁻¹
Kd (PDGF-BB): 25 pM
kon (PDGF-BB): 6.8e+06 M⁻¹ s⁻¹
B2: 9E10.1_GS_9E8.4 (PR-1612491) (bispecific antibody, human IgG1, kappa, L234A L235A)
heavy: EIQLVQSGSELKKPGASVKVSCKASGYTFTNYGMYWVKQAPGQGLEYMGWIDTETGRPTYADDFKGRFVFSLDTSVSTAYLQISSLKAEDTAVYFCARWSGDTTGIRGPWFAYWGQGTLVTVSSGGGGSGGGGSEVTLRESGPALVKPTQTLTLTCTFSGFSLSTYGMGVGWIRQPPGKALEWLANIWWDDDKYYNPSLKNRLTISKDTSKNQVVLTMTNMDPVDTATYYCARIESIGTTYSFDYWGQGTMVTVSSASTKGPSVFPLAPSSKSTSGGTAALGCLVKDYFPEPVTVSWNSGALTSGVHTFPAVLQSSGLYSLSSVVTVPSSSLGTQTYICNVNHKPSNTKVDKKVEPKSCDKTHTCPPCPAPEAAGGPSVFLFPPKPKDTLMISRTPEVTCVVVDVSHEDPEVKFNWYVDGVEVHNAKTKPREEQYNSTYRVVSVLTVLHQDWLNGKEYKCKVSNKALPAPIEKTISKAKGQPREPQVYTLPPSREEMTKNQVSLTCLVKGFYPSDIAVEWESNGQPENNYKTTPPVLDSDGSFFLYSKLTVDKSRWQQGNVFSCSVMHEALHNAYTQKSLSLSPGK
light: DIRMTQSPSSLSASVGDRVTIECLASEDIYSDLAWYQQKPGKSPKLLIYNANGLQNGVPSRFSGSGSGTDYSLTISSLQPEDVATYFCQQYNYFPGTFGQGTKLEIKGGSGGGGSGGEFVLTQSPGTLSLSPGERATLSCERSSGDIGDSYVSWYQQKPGQAPRLVIYADDQRPSGIPDRFSGSGSGTDFTLTISRLEPEDFAVYYCQSYDINIDIVFGGGTKVEIKRTVAAPSVFIFPPSDEQLKSGTASVVCLLNNFYPREAKVQWKVDNALQSGNSQESVTEQDSKDSTYSLSSTLTLSKADYEKHKVYACEVTHQGLSSPVTKSFNRGEC
notes: DVD-Ig: outer hBEW-9E10.1 (VEGF), inner hBDI-9E8.4 (PDGF), linkers GS-H10 / GS-L10(dR); Human IgG1 L234A, L235A, H435A with kappa light chain

Kd (VEGF-A): 2 pM
kon (VEGF-A): 1.1e+07 M⁻¹ s⁻¹
Kd (PDGF-BB): 1.2 pM
kon (PDGF-BB): 2.4e+07 M⁻¹ s⁻¹
B1: 9E10.6_GS_CL-33675 (PR-1612492) (bispecific antibody, human IgG1, kappa, L234A L235A)
heavy: EVQLVQSGAEVKKPGSSVKVSCKASGYTFTNYGMYWVRQAPGQGLEWMGWIDTETGRPTYADDFKGRFTFTADKSTSTAYMELSSLRSEDTAVYYCARWSGDTTGIRGPWFAYWGQGTLVTVSSGGGGSGGGGSEVTLRESGPALVKPTQTLTLTCTFSGFSLSTYGMGVGWIRQPPGKALEWLANIWWDDDKYYNPSLKNRLTISKDTSKNQVVLTMTNMDPVDTATYYCARIESSGPKYSFDYWGQGTMVTVSSASTKGPSVFPLAPSSKSTSGGTAALGCLVKDYFPEPVTVSWNSGALTSGVHTFPAVLQSSGLYSLSSVVTVPSSSLGTQTYICNVNHKPSNTKVDKKVEPKSCDKTHTCPPCPAPEAAGGPSVFLFPPKPKDTLMISRTPEVTCVVVDVSHEDPEVKFNWYVDGVEVHNAKTKPREEQYNSTYRVVSVLTVLHQDWLNGKEYKCKVSNKALPAPIEKTISKAKGQPREPQVYTLPPSREEMTKNQVSLTCLVKGFYPSDIAVEWESNGQPENNYKTTPPVLDSDGSFFLYSKLTVDKSRWQQGNVFSCSVMHEALHNAYTQKSLSLSPGK
light: DIRMTQSPSSLSASVGDRVTITCLASEDIYSDLAWYQQKPGKSPKLLIYNANGLQNGVPSRFSGSGSGTDYTLTISSLQPEDVATYFCQQYNYFPGTFGQGTKLEIKGGSGGGGSGGEIVLTQSPGTLSLSPGERATLSCRASSGSIWYSFVSWYQQKPGQAPRLLIYADDQRASGIPDRFSGSGSGTDFTLTISRLEPEDFAVYYCQSYGINIDVVFGGGTKVEIKRTVAAPSVFIFPPSDEQLKSGTASVVCLLNNFYPREAKVQWKVDNALQSGNSQESVTEQDSKDSTYSLSSTLTLSKADYEKHKVYACEVTHQGLSSPVTKSFNRGEC
notes: DVD-Ig: outer hBEW-9E10.6 (VEGF), inner CL-33675 (PDGF), linkers GS-H10 / GS-L10(dR); Human IgG1 L234A, L235A, H435A with kappa light chain
